T1: PBP1B K355A (E. coli, UniProt P02919 46-844, K355A)
T1 sequence (looked up): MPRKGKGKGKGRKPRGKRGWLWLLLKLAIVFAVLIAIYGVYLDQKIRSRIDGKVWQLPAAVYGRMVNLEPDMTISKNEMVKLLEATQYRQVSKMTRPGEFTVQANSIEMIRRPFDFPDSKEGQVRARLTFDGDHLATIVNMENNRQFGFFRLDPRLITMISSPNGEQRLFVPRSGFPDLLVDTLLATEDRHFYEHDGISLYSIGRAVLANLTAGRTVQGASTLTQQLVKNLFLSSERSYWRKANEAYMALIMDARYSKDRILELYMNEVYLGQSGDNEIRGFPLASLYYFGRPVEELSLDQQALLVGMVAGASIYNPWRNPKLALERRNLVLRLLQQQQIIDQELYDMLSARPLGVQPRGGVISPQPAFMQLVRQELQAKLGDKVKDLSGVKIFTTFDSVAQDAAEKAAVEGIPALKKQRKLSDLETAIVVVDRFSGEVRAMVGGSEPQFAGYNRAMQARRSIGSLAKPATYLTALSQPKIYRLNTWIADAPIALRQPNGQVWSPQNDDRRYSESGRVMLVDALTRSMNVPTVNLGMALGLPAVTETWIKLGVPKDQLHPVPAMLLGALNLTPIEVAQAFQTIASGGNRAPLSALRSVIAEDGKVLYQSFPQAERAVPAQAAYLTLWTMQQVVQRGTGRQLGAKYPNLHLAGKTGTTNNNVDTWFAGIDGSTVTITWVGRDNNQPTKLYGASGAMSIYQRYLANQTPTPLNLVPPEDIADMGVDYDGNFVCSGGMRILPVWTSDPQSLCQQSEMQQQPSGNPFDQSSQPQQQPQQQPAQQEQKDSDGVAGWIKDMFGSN

T2: PBP1B Q318A (E. coli, UniProt P02919 46-844, Q318A)
T2 sequence (looked up): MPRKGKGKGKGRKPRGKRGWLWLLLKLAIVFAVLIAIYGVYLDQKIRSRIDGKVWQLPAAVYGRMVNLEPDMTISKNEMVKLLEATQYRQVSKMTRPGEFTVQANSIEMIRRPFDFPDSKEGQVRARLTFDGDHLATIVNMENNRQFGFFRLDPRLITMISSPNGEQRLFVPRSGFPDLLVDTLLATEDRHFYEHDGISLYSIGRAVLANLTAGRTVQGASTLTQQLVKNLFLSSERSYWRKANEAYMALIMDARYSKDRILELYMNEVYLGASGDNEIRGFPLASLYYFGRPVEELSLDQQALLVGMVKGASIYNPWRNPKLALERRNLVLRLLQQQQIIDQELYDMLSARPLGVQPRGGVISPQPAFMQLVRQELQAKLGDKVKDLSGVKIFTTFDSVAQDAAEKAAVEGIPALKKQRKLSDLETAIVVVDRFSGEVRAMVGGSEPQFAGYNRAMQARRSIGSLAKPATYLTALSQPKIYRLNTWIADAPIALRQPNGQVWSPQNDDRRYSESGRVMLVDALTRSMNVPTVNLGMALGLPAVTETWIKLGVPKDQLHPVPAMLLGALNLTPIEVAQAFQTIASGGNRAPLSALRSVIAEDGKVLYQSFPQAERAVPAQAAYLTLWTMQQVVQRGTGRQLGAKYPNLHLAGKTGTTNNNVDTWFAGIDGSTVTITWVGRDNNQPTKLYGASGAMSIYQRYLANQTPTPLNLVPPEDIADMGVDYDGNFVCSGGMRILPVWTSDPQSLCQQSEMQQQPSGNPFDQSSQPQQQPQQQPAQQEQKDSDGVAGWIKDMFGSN

T3: PBP1B R157A (E. coli, UniProt P02919 46-844, R157A)
T3 construct: PBP1B, E. coli, residues 46-844, made by mutagenesis of pDML924; source: E. coli BL21(DE3), purified (membrane extract, HisTrap, thrombin, HiTrap SP ion exchange)
T3 sequence (looked up): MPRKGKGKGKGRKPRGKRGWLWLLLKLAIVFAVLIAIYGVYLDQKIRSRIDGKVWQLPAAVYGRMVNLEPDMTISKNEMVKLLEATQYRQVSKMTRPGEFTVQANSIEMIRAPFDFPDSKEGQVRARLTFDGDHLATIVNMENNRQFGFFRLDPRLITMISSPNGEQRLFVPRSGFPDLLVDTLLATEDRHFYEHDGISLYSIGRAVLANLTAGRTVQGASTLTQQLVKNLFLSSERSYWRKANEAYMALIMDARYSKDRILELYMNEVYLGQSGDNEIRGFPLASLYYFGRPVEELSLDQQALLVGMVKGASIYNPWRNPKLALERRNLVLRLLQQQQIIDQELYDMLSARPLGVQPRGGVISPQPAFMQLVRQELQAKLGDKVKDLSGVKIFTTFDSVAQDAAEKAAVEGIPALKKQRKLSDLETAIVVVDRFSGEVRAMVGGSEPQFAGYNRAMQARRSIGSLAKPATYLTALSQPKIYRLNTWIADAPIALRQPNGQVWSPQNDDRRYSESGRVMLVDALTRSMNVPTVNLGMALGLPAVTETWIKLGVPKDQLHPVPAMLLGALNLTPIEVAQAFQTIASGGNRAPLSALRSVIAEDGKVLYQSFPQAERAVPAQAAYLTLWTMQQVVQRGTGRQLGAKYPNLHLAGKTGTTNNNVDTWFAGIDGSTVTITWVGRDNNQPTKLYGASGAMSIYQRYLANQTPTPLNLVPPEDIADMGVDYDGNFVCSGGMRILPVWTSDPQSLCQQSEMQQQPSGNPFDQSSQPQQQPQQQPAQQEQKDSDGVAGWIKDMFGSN


Tests used:
PBP1B K355A = target: T1, PBP1B K355A; experiment: cell-based or functional assay
PBP1B Q318A = target: T2, PBP1B Q318A; experiment: cell-based or functional assay
PBP1B R157A = target: T3, PBP1B R157A; experiment: SPR; PBP1B versions immobilised to the chip surface; CpoB versions injected from either 3.9 nM to 2 μM or from 78 nM to 40 μM; apparent KD by non-linear regression, at least three independent experiments; details: both partners purified

Binder | fold activation of the GTase rate of PBP1B K355A by LpoB (PBP1B K355A) | fold activation of the GTase rate of PBP1B Q318A by LpoB (PBP1B Q318A) | Kd (PBP1B R157A)
LpoB (natural protein, E. coli, LpoB, E. coli; also called lipoprotein LpoB; source: E. coli BL21(DE3), purified (HisTrap, Superdex 200), as in Egan et al. 2014) VGQREPAPVEEVKPAPEQPAEPQQPVPTVPSVPTIPQQPGPIEHEDQTAPPAPHIRHYDWNGAMQPMVSKMLGADGVTAGSVLLVDSVNNRTNGSLNAAEATETLRNALANNGKFTLVSAQQLSMAKQQLGLSPQDSLGTRSKAIGIARNVGAHYVLYSSASGNVNAPTLQMQLMLVQTGEIIWSGKGAVSQQ | ~37 fold | ~25 fold | 
CpoB (full length) (natural protein, E. coli, UniProt P45955 27-263, looked up, CpoB, E. coli; The coiled-coil construct begins at residue 27, so the purified 'full length' protein may lack the signal peptide (surmise); source: E. coli BL21(DE3), purified (HisTrap, Superdex 200), as in Gray et al. 2015) QAPISSVGSGSVEDRVTQLERISNAHSQLLTQLQQQLSDNQSDIDSLRGQIQENQYQLNQVVERQKQILLQIDSLSSGGAAAQSTSGDQSGAAASTTPTADAGTANAGAPVKSGNANTDYNAAIALVQDKSRQDDAMVAFQNFIKNYPDSTYLPNANYWLGQLNYNKGKKDDAAYYFASVVKNYPKSPKAADAMFKVGVIMQDKGDTAKAKAVYQQVISKYPGTDGAKQAQKRLNAM |  |  | 0.147 µM
